Measured values reported in the Immune Epitope Database (IEDB).

Assays:
Experiment in all cases: IEDB peptide-MHC binding, purified MHC/competitive/radioactivity; ≥ and ≤ were set here for values at or beyond the usual limits of such assays
Settings in all cases: source organism: Bordetella pertussis
[1] = target: HLA-B*44:03
[2] = target: HLA-B*53:01
[3] = target: HLA-A*02:01
[4] = target: HLA-B*07:02
[5] = target: HLA-B*57:01

| Sequence | IC50 [1] [µM] | IC50 [2] [µM] | other results |
| --- | --- | --- | --- |
| ANEANALLW | 9.19 | – | – |
| EVDGIIQEF | 15.9 | – | – |
| FDTMLGFAI | – | 2.91 | – |
| FTHADGWFL | – | – | IC50 [3]: 14 µM |
| ILPILVLAL | – | – | IC50 [3]: 0.0254 µM |
| LSDAGHEHD | – | 36.5 | – |
| NPQTQLSNI | – | 23.6 | – |
| PGTFTAGKD | – | – | IC50 [3]: 62.5 µM |
| PGTPGDLLE | – | ≥ 78.2 | – |
| PPRPVVAEK | – | – | IC50 [4]: 69.6 µM |
| SSTPLGSLF | – | – | IC50 [5]: ≥ 70.4 µM |
| VEASAITTY | 1.97 | – | – |
| YEDATFETY | 3.73 | – | – |
